Experimental findings from patent publication US20100105141, “Sulfonylurea-Responsive Repressor Proteins” (Pioneer Hi-Bred International, Inc., published 2010) are described below.

For the data set, the target named is L7-1F08-A11 (L7-A11, EsR2) (synthetic, UniProt P04483 SEQ:1-207, L55M,H64A,F67Y,F86M,H100C,R104G,P105F,K108Q,L113A,Q116S,L134M,S135Q,H139I,F140Y, …). Put plainly: EMSA; 5 pmol DNA, 20 mM Tris-HCl pH 8.0, 10 mM EDTA, RT 0.5 h; released by ethametsulfuron dose-dependently, less by chlorsulfuron; no change with atc. The note with it: chain copies: 2. For orientation: In EMSA bound probe runs differently from free probe, usually more slowly.

Protocol: Five pmol of TetO or control DNA was mixed with the indicated amounts (FIG. 7) of ethametsulfuron repressor protein (L7A11) or BSA control with or without inducer in complex buffer containing 20 mM Tris-HCl (pH8.0) and 10 mM EDTA. The mixture was incubated at room temperature for 0.5 hour before loading onto the gel. The reaction was electrophoresed on a Novex 6% DNA retardation gel (Invitrogen, EC6365BOX) at room temperature, 38 V in 0.5×TBE buffer for about 2 hours. DNA was detected by ethidium bromide staining.

B1: tetO 48 bp (dsDNA)
DNA 1: CCTAATTTTTGTTGACACTCTATCATTGATAGAGTTATTTTACCACTC
DNA 2: GAGTGGTAAAATAACTCTATCAATGATAGAGTGTCAACAAAAATTAGG
With B1, the binding result is “binds”.
